B1: DNA-binding transcriptional dual regulator CRP, P0ACJ8 (parent)
chain: MVLGKPQTDPTLEWFLSHCHIHKYPSKSTLIHQGEKAETLYYIVKGSVAVLIKDEEGKEMILSYLNQGDFIGELGLFEEGQERSAWVRAKTACEVAEISYKKFRQLIQVNPDILMRLSAQMARRLQVTSEKVGNLAFLDVTGRIAQTLLNLAKQPDAMTHPDGMQIKITRQEIGQIVGCSRETVGRILKMLEDQNLISAHGKTIVVYGTR
B2: Superoxide dismutase [Cu-Zn], P00445 (parent)
chain: MVQAVAVLKGDAGVSGVVKFEQASESEPTTVSYEIAGNSPNAERGFHIHEFGDATNGCVSAGPHFNPFKKTHGAPTDEVRHVGDMGNVKTDENGVAKGSFKDSLIKLIGPTSVVGRSVVIHAGQDDLGKGDTEESLKTGNAGPRPACGVIGLTN
B3: Alpha-lactalbumin, P00712 (parent)
chain: MMSFVSLLLVGILFHATQAEQLTKCEVFQKLKDLKDYGGVSLPEWVCTAFHTSGYDTQAIVQNNDSTEYGLFQINNKIWCKDDQNPHSRNICNISCDKFLDDDLTDDIVCAKKILDKVGINYWLAHKALCSEKLDQWLCEKL
B4: Ribose import binding protein RbsB, P02925 (parent)
chain: MNMKKLATLVSAVALSATVSANAMAKDTIALVVSTLNNPFFVSLKDGAQKEADKLGYNLVVLDSQNNPAKELANVQDLTVRGTKILLINPTDSDAVGNAVKMANQANIPVITLDRQATKGEVVSHIASDNVLGGKIAGDYIAKKAGEGAKVIELQGIAGTSAARERGEGFQQAVAAHKFNVLASQPADFDRIKGLNVMQNLLTAHPDVQAVFAQNDEMALGALRALQTAGKSDVMVVGFDGTPDGEKAVNDGKLAATIAQLPDQIGAKGVETADKVLKGEKVQAKYPVDLKLVVKQ
B5: Osteomodulin, Q99983 (parent)
chain: MGFLSPIYVIFFFFGVKVHCQYETYQWDEDYDQEPDDDYQTGFPFRQNVDYGVPFHQYTLGCVSECFCPTNFPSSMYCDNRKLKTIPNIPMHIQQLYLQFNEIEAVTANSFINATHLKEINLSHNKIKSQKIDYGVFAKLPNLLQLHLEHNNLEEFPFPLPKSLERLLLGYNEISKLQTNAMDGLVNLTMLDLCYNYLHDSLLKDKIFAKMEKLMQLNLCSNRLESMPPGLPSSLMYLSLENNSISSIPEKYFDKLPKLHTLRMSHNKLQDIPYNIFNLPNIVELSVGHNKLKQAFYIPRNLEHLYLQNNEIEKMNLTVMCPSIDPLHYHHLTYIRVDQNKLKEPISSYIFFCFPHIHTIYYGEQRSTNGQTIQLKTQVFRRFPDDDDESEDHDDPDNAHESPEQEGAEGHFDLHYYENQE
B6: DNA-Binding protein, P69542 (parent)
chain: MIKVEIKPSQAQFTTRSGVSRQGKPYSLNEQLCYVDLGNEYPVLVKITLDEGQPAYAPGLYTVHLSSFKVGQFGSLMIDRLRLVPAK

Variants of: B1
Conditions: Escherichia coli (strain K12); pH 7.9; 20 °C; Thermal; CD; Tris-HCl 50 mM; KCl 100 mM; reversible: yes; structure 1G6N; whole UniProt chain shown

Row | Variant | ddG of mutation (higher = less stable) | unfolding free energy
1 | S129A | 0.26 kcal/mol | 7.06 kcal/mol

Variants of: B2
Conditions: Saccharomyces cerevisiae (strain ATCC 204508 / S288c); Thermal; Fluorescence; structure 1JK9; whole UniProt chain shown

Row | Variant | change of melting temperature, mutant - wild type (higher = more stable)
2 | G94A | 20 °C

Variants of: B3
Conditions: Capra hircus; pH 7; 25 °C; Thermal; CD; sodium cacodylate 50 mM; CaCl2 1 mM; structure 1HFY; whole UniProt chain shown

Row | Variant | ddG of mutation (higher = less stable)
3 | T48I | -1.37 kcal/mol
4 | T48V | -1.86 kcal/mol

Variants of: B4
Conditions: Escherichia coli (strain K12); pH 7.7; 25 °C; GdnHCl; Fluorescence; HEPES 10 mM; reversible: yes; structure 2DRI; whole UniProt chain shown

Row | Variant | unfolding free energy
5 | A52T | 1.8 kcal/mol

Variants of: B5
Conditions: Homo sapiens; pH 7.4; Thermal; DSC; PBS; transition: 2; structure 5YQ5; whole UniProt chain shown

Row | Variant | Tm
6 | D254R | 37 °C
7 | E225R | 41.8 °C
8 | E173R | 42.3 °C
9 | N278R | 38.5 °C
10 | E284R | 42.3 °C
11 | E284R E303R | 43.8 °C
12 | E303R | 43.3 °C

Variants of: B6
Conditions: Enterobacteria phage fd; pH 7; 25 °C; GdnHCl; CD; MOPS 50 mM; NaCl 100 mM; reversible: yes; structure 1VQB; whole UniProt chain shown

Row | Variant | unfolding free energy
13 | L32W | 2.8 kcal/mol
14 | K69M | 0.1 kcal/mol
15 | T48V | 0 kcal/mol
16 | K24V | 0.8 kcal/mol
17 | T62V | 1.3 kcal/mol

Source: FireProtDB
